PMC6235889, “Conformational ensemble of the human TRPV3 ion channel” (Nature Communications, 2018)

Biological target: the molecule itself
Assay: cryo-EM structure; apo TRPV3 T96A in PMAL-C8 amphipol, 50 mM Tris pH 8, 150 mM NaCl; Titan Krios 300 keV; C4 symmetry, ~3.4 Å

B1: full-length human TRPV3 containing the point mutation T96A (natural protein, UniProt Q8NET8-1 1-790, looked up)
chain: MKAHPKEMVPLMGKRVAAPSGNPAILPEKRPAEITPTKKSAHFFLEIEGFEPNPTVAKTSPPVFSKPMDSNIRQCISGNCDDMDSPQSPQDDVTEAPSNPNSPSAQLAKEEQRRKKRRLKKRIFAAVSEGCVEELVELLVELQELCRRRHDEDVPDFLMHKLTASDTGKTCLMKALLNINPNTKEIVRILLAFAEENDILGRFINAEYTEEAYEGQTALNIAIERRQGDIAALLIAAGADVNAHAKGAFFNPKYQHEGFYFGETPLALAACTNQPEIVQLLMEHEQTDITSRDSRGNNILHALVTVAEDFKTQNDFVKRMYDMILLRSGNWELETTRNNDGLTPLQLAAKMGKAEILKYILSREIKEKRLRSLSRKFTDWAYGPVSSSLYDLTNVDTTTDNSVLEITVYNTNIDNRHEMLTLEPLHTLLHMKWKKFAKHMFFLSFCFYFFYNITLTLVSYYRPREEEAIPHPLALTHKMGWLQLLGRMFVLIWAMCISVKEGIAIFLLRPSDLQSILSDAWFHFVFFIQAVLVILSVFLYLFAYKEYLACLVLAMALGWANMLYYTRGFQSMGMYSVMIQKVILHDVLKFLFVYIVFLLGFGVALASLIEKCPKDNKDCSSYGSFSDAVLELFKLTIGLGDLNIQQNSKYPILFLFLLITYVILTFVLLLNMLIALMGETVENVSKESERIWRLQRARTILEFEKMLPEWLRSRFRMGELCKVAEDDFRLCLRINEVKWTEWKTHVSFLNEDPGPVRRTDFNKIQDSSRNNSKTTLNAFEEVEEFPETSV
notes: Transient receptor potential vanilloid channel 3 (TRPV3), human, full length, with the stabilising point mutation T96A; Homotetramer; Residues 1-117, which include T96A, were not resolved in the reconstructions; No removal of the FLAG tag is described; also called hTRPV3; TRPV3_(T96A); source: Sf9 insect cells (baculovirus), purified (anti-FLAG resin, size exclusion), reconstituted in PMAL-C8 …
stoichiometry N: 4
